Laboratory results from patent US20230312724A1 (KADMON, published 2023).

T1: mouse B7-H4-his (mouse, UniProt Q7TSP5 25-257)
T1 construct: also called mB7-H4-his; mB7-H4-His; not shown: his tag
T1 sequence: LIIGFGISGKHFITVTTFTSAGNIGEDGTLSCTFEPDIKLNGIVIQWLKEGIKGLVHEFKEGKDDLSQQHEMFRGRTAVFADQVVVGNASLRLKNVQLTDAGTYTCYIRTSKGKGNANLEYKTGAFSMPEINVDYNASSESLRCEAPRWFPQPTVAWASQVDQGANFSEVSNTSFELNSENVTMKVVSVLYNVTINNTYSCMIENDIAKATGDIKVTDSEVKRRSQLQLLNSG

T2: human B7-H4-his (human, UniProt Q7Z7D3 25-259)
T2 construct: also called hB7-H4-his; hB7-H4 his; not shown: his tag
T2 sequence: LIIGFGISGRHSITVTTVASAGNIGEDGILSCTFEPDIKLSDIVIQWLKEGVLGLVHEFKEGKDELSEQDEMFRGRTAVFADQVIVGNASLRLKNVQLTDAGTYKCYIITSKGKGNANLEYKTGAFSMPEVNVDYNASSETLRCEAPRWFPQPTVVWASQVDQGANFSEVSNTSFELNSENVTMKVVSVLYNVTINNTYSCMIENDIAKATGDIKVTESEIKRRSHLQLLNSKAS


How the values were obtained:
mouse B7-H4-his = molecular target: T1, mouse B7-H4-his; assay: SPR (Biacore)
mouse B7-H4-Fc [1] = molecular target: T3, mouse B7-H4-Fc (mouse; human); assay: ELISA, coated mB7-H4-Fc
T3 construct: also called mB7-H4-Fc; mB7-H4-hFc
T3 sequence (chain, as listed by the source): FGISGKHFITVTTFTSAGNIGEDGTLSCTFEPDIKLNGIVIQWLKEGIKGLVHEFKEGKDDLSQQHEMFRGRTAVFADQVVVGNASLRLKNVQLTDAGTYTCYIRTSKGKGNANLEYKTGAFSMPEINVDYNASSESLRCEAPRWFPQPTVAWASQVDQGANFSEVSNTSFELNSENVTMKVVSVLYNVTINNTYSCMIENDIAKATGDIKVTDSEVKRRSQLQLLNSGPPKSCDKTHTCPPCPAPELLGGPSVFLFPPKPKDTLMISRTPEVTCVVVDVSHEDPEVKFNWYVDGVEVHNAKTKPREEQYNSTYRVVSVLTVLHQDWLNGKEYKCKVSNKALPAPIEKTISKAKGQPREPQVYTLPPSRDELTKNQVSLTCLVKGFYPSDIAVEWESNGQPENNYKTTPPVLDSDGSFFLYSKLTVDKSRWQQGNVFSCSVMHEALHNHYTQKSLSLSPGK
Procedure: (§1) About 1-2 μg/ml of human or mouse B7-H4-Fc (or his-tagged) was immobilized on ELISA plates (Immuno 2HB, Thermo scientific, cat #3455) at 4° C. overnight. After blocking the plates with 3% PBS+milk, serial diluted antibodies were added to the blocked plates and incubated at RT for 1-1.5 h. After washing the plates with PBS-T (0.05%), horse radish peroxidase (HRP)-conjugated antibody targeting the hFab was added to the plate. Signals were developed by adding 3,3′,5,5′-Tetramethylbenzidine (TMB (followed 1N of H₂SO₄ to stop the reaction. The OD at 450 nm was read by ELISA plate reader (Infinite M1000 from TECAN). GraphPad from Prism was used to plot OD450 vs. antibody concentration curve and to calculate the EC50 values.

human B7-H4-his = molecular target: T2, human B7-H4-his; assay: SPR (Biacore)
Procedure: (§2) Surface plasmon resonance experiments were performed using a Biacore T200 instrument equipped with CM5 sensor chips. The system was equilibrated in running buffer HBS-EP pH 7.4. The ligands were immobilized using amine-coupling chemistry. The surfaces of flow cells one through four were activated for 5 min using an amine coupling kit at a flow rate of […]. The ligands (human B7-H4-Fc, human B7-H4-hism and mouse B7-H4-Fc; at a concentration of 5 μg/ml in 10 mM sodium acetate, pH 5.0) were immobilized at a density of 50-100 RU on flow cell 2, 3, 4 respectively. Flow cell 1 was left blank to serve as a reference surface. All flow cell surfaces were blocked with a 5 min injection of 1 M ethanolamine, pH 8.0. To collect kinetic binding data, the respective analyte (diluted in 1×HBS-EP buffer, pH 7.4) was injected over the four flow cells at concentrations of 100 nM to 0.1 nM at a flow rate of […] and at a temperature of 25° C. The protein complex was allowed to associate and dissociate for 180 seconds and 1000 or 1200 seconds, respectively. The surfaces were regenerated with a 30 second injection of 1.5 M NaCl/0.05 M NaOH. The data were fit to a simple 1:1 interaction model using the Langmuir fit option available within the Biaevaluaton software
(§3) The kinetics for binding of the different antibodies to their targets were examined using Biacore analysis.

mouse B7-H4-Fc [2] = molecular target: T3, mouse B7-H4-Fc; assay: SPR (Biacore)
human B7-H4-Fc [3] = molecular target: T4, human B7-H4-Fc (human); assay: ELISA, coated hB7-H4-Fc
T4 construct: also called hB7-H4-Fc; hB7-H4 Fc
T4 sequence (chain, as listed by the source): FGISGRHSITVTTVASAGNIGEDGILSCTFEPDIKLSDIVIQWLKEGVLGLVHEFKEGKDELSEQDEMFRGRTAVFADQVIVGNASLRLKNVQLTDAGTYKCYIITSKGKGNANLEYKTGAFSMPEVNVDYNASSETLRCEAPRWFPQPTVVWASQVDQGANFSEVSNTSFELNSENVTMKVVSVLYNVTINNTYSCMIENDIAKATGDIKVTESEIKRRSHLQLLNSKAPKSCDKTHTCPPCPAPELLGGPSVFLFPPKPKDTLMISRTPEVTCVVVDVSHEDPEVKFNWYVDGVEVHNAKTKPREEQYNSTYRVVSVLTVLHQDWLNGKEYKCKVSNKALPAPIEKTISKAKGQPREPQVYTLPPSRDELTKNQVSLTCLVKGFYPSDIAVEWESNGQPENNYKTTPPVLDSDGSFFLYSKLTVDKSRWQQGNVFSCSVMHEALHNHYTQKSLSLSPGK
Procedure: as §1

[4] = molecular target: T5, IgV domain of mouse B7-H4-Fc (mouse; human); assay: ELISA, coated mB7-H4 IgV domain
T5 construct: also called mB7-H4 IgV domain
T5 sequence (chain, as listed by the source): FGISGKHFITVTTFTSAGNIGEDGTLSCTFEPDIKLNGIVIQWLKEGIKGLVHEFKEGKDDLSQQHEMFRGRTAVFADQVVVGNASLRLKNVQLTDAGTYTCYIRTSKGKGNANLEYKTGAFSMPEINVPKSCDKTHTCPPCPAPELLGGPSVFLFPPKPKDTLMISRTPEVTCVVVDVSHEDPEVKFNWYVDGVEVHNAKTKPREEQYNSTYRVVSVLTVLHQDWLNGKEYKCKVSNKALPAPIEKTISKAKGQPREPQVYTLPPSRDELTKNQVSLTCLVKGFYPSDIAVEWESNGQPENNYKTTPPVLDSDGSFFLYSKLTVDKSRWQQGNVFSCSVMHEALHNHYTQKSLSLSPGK
Procedure: as §1

[5] = molecular target: T6, IgV domain of human B7-H4-Fc (human); assay: ELISA, coated hB7-H4 IgV domain
T6 construct: also called hB7-H4 IgV domain
T6 sequence (chain, as listed by the source): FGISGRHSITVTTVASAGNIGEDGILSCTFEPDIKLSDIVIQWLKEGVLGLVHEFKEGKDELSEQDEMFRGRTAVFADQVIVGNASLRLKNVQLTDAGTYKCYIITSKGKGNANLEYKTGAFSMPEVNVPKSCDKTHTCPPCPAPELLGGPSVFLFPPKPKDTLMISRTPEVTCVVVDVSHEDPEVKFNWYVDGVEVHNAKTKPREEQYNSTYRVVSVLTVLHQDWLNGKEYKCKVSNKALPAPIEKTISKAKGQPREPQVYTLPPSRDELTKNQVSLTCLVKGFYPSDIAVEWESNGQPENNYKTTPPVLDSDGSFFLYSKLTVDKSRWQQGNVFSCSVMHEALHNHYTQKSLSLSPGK
Procedure: as §1

human B7-H4-Fc [6] = molecular target: T4, human B7-H4-Fc; assay: SPR (Biacore)
Procedure: as §2, §3

Row | Binder | Kd (mouse B7-H4-his) | binding result (mouse B7-H4-Fc [1]) | Kd (human B7-H4-his) | Kd (mouse B7-H4-Fc [2]) | EC50 (read off the curve) (human B7-H4-Fc [3]) | binding result [4] | EC50 (read off the curve) (mouse B7-H4-Fc [1]) | binding result [5] | Kd (human B7-H4-Fc [6])
1 | 24F4/24F4 (antibody, human IgG1, V domains shown) VH: QVQLVQSGAEVKKPGSSVKVSCKASGYRFTGDYIHWVRQAPGQGLEWMGWMNPNSGNTGLAQKFQGRVTITADESTSTAYMELSSLRSEDTAVYYCARVLGFSGGMDVWGQGTTVTVSS VL: DIVMTQSPLSLPVTPGEPASISCRSSQSLLHSNGYNYLDWYLQKPGQSPQLLIYAASSLRSGVPDRFSGSGSGTDFTLKISRVEAEDVGVYYCMQGTHWPPTFGQGTKLEIK | 29.2 nM | binds | 194 nM |  |  |  |  |  | 
2 | 5F4/5F4 (antibody, human IgG1, V domains shown) VH: EVQLLESGGGLVKPGGSLRLSCAASGFTFSSYAMHWVRQAPGKGLEWVSAIGGSGRTTYYADSVKGRFTISRDDSKNTLYLQMNSLKTEDTAVYYCARERGYSYGQIDYWGQGTLVTVSS VL: DIVMTQSPLSLPVTPGEPASISCRSSQSLLHSNGYNYLDWYLQKPGQSPQLLIYAASSLQSGVPDRFSGSGSGTDFTLKISRVEAEDVGVYYCMQGAHWPLTFGQGTKVEIK | 15 nM |  | 16.6 nM | 11.9 nM | ~0.1 nM | no binding (tested: 20 nM) | ~0.1 nM | no binding (tested: 20 nM) | 15 nM
3 | 9E1/9E1 (antibody, V domains shown) VH: QVQLVQSGAEVKKPGASVKVSCKASGYTFTGYYLHWVRQAPGQGLEWMGWINPNSGGTNSAQRFQGRVTMTRDTSTSTVYMELSSLRSEDTAVYYCARVRGYEGGMDVWGQGTTVTVSS VL: not shown | 12.4 nM |  | 7.91 nM | 10.6 nM |  | no binding (tested: 20 nM) |  | no binding (tested: 20 nM) | 13.7 nM

Stronger by Kd (mouse B7-H4-his), values ahead:

Row | Kd (mouse B7-H4-his) | binding result (mouse B7-H4-Fc [1]) | Kd (human B7-H4-his) | Kd (mouse B7-H4-Fc [2]) | EC50 (read off the curve) (human B7-H4-Fc [3]) | binding result [4] | EC50 (read off the curve) (mouse B7-H4-Fc [1]) | binding result [5] | Kd (human B7-H4-Fc [6]) | Binder
4 | 3.4 nM | binds | 5.3 nM |  |  |  |  |  |  | 24B6/24B6 (antibody, human IgG1, V domains shown) VH: QVQLVQSGAEVKKPGASVKVSCKASGYTFTGYYMHWVRQAPGQGLEWIGWMNPNSGDTGYAQKFQGRVTMTRDTSTSTVYMELSSLRSEDTAVYYCAKVGAYGGMDVWGQGTTVTVSS VL: not shown
5 | 6.38 nM | binds | 6.05 nM |  |  |  |  |  |  | 30G4/30G4 (antibody, human IgG1, V domains shown) VH: QVQLVQSGAEVKKPGASVKVSCKASGYTFSSYYMHWVRQAPGQGLEWMGWMNPNSGDTGYAQKFQGRVTMTRDTSTSTVYMELSSLRSEDTAVYYCARVPETGGMDVWGQGTTVTVSS VL: DIVMTQSPLSLPVTPGEPASISCRSSQSLLHSNGYNYLDWYLQKPGQSPQLLIYGASSLHSGVPDRFSGSGSGTDFTLKISRVEAEDVGVYYCMQGTHWPPTFGQGTKVEIK
6 | 6.17 nM |  | 5.17 nM | 3.55 nM |  |  |  |  | 4.26 nM | 15B11/15B11 (antibody, V domains shown) VH: QVQLVQSGAEVKKPGASVKVSCKASGYTFTGYYIHWVRQAPGQGLEWMGWMNPHSGHTGYAQNLQGRVTMTRDTSTSTVYMELSSLRSEDTAVYYCARVKVTTGFDYWGQGTLVTVSS VL: not shown
